Laboratory results as given in patent US7153676B1, “Transacylases of the paclitaxel biosynthetic pathway” (priority 1999, dated 2006).
Entries after “also recorded” stand apart in the source; their conditions may differ.

What was measured:
TAX2 gene product = target: T1, TAX2 gene product (Taxus cuspidata, UniProt Q9FPW3); experiment: recombinant TAX2 expressed in E. coli JM109, acetyl transacylase assay; type: biochemical; settings: [3H]taxadienol and acetyl CoA co-substrates
T1 construct: Full-length insert fragments of the relevant plasmids are excised and subcloned in-frame into the expression vector pCWori+; made in house; host or cells: E. coli JM109 (pCWori+)
T1 sequence (Q9FPW3 1-440): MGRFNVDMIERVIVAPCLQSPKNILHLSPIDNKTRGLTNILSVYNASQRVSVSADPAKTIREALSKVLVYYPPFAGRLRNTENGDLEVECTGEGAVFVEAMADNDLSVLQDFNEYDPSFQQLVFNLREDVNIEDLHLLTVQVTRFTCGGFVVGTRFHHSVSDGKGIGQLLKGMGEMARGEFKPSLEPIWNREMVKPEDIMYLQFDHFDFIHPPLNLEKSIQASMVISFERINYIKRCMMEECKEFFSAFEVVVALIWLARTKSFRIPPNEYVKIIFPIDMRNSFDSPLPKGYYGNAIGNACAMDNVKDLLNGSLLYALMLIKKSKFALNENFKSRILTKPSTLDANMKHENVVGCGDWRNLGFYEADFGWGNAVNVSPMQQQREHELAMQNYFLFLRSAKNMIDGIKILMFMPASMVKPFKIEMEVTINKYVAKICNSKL
Description: To determine the identity of the putative taxadienol acetyl transacylase, TAX1 (SEQ ID NO: 28), TAX2 (SEQ ID NO: 26), and TAX6 (SEQ ID NO: 45) were subcloned in-frame into the expression vector pCWori+ (Barnes, Methods Enzymol. 272:3–14, 1996) and expressed in E. coli JM109 cells. The transformed bacteria were cultured and induced with isopropyl β-D-thiogalactoside (IPTG), and cell-free extracts were prepared and evaluated for taxadienol acetyl transacylase activity using the previously developed assay procedures (Walker et al., Arch. Biochem. Biophys. 364:273–279, 1999). Clone TAX1 (corresponding directly to Probe 1) expressed high levels of taxadienol acetyl transacylase activity (20% conversion of substrate to product), as determined by radiochemical analysis; the product of this recombinant enzyme was confirmed as taxadienyl-5α-yl acetate by gas chromatography-mass spectrometry (GC-MS) (FIGS. 5A–5G). […] Neither of the recombinant proteins expressed from TAX1 (SEQ ID NO: 28) or TAX2 (SEQ ID NO: 26) was capable of acetylating the advanced paclitaxel precursor 10-deacetyl baccatin III to baccatin III. […]

[1] = target: T2, taxane-2α-O-benzoyl transferase (TAX2) (Taxus cuspidata, UniProt Q9FPW3); experiment: recombinant TAX2 benzoyl transferase screening assay (radio-HPLC); type: biochemical; settings: UV and radioactivity profiles
T2 construct: Full-length insert fragments of the relevant plasmids are excised and subcloned in-frame into the expression vector pCWori+; made in house; host or cells: E. coli JM109 (pCWori+)
T2 sequence (Q9FPW3 1-440): T1 sequence (Q9FPW3 1-440)
Description: TAX2, TAX5, TAX7, TAX9, TAX10, TAX 12, and TAX13 ([…]) were expressed in bacteria using the following protocol. For a typical preparation of the recombinant enzyme, each of the E. coli cultures transformed with a pCWori+ vector harboring a putative transacylase gene was grown overnight at 37° C. in 5 mL Luria-Bertani medium supplemented with 50 μg ampicillin/mL. 1 mL of these cultures was individually added to separate aliquots of 100 mL Terrific Broth culture medium (6 g bacto-tryptone (Difco Laboratories, Spark, Md.), 12 g yeast extract (EM Science, Cherryhill, N.J.), and 2 mL glycerol in 500 mL water) and grown at 37° C. After 3 hours, the medium was supplemented with 1 mM isopropyl-β-D-thiogalactopyranoside for induction and 50 μg ampicillin/mL, and the cultures were grown at 25° C. […]
A 1-mL aliquot of each soluble enzyme preparation was incubated with 2-debenzoyl-7,13-diacetylbaccatin III (500 μM) and [7-^14C]benzoyl coenzyme A (500 μM, 9.3 μCi) for 1.5 hours at 31° C. […] The resulting crude products of the assay were dissolved in acetonitrile (50 μL) and analyzed by radio-HPLC using a Perkin Elmer HPLC ISS 200 coupled to a PACKARD RADIOMATIC™ radioactivity detector series A100 (Canberra, Ind., Meriden, Conn.) (see FIGS. 12A and 12B for a representative chromatogram). […]

B1: TAX2: full-length clone, SEQ ID NO: 25/26; taxane-2α-O-benzoyl transferase (protein, listed as Taxus cuspidata)
chain: T1 sequence (Q9FPW3 1-440)
taxadienol acetyl transacylase activity (TAX2 gene product): did not express taxadienol acetyl transacylase activity; also recorded: inactive
product from 2-debenzoyl-7,13-diacetylbaccatin III and [7-14C]benzoyl CoA [1]: coincide exactly with the retention time of authentic 7,13-diacetylbaccatin III
